This is an account of results in patent US20070031418A1 (published 2007).

For assay [1], the target named is trkC receptor in stable trkC expressing CHO cells. Description: cell-based or functional assay.
Assay [2] concerns the target trkC receptor of embryonic rat trigeminal neurons (rat) (UniProt Q03351). Description: cell-based or functional assay.
In assay [3] the target is T1, human trkC (human, UniProt Q16288 32-429, limits assumed).
T1 construct: also called htrkC
Description: BIAcore analysis (SPR); format not stated. On the technique in general: In SPR one partner is held on a chip, and binding of the other changes the refractive index at the surface.

Sequence of trkC receptor of embryonic rat trigeminal neurons (rat) (Q03351 32-864): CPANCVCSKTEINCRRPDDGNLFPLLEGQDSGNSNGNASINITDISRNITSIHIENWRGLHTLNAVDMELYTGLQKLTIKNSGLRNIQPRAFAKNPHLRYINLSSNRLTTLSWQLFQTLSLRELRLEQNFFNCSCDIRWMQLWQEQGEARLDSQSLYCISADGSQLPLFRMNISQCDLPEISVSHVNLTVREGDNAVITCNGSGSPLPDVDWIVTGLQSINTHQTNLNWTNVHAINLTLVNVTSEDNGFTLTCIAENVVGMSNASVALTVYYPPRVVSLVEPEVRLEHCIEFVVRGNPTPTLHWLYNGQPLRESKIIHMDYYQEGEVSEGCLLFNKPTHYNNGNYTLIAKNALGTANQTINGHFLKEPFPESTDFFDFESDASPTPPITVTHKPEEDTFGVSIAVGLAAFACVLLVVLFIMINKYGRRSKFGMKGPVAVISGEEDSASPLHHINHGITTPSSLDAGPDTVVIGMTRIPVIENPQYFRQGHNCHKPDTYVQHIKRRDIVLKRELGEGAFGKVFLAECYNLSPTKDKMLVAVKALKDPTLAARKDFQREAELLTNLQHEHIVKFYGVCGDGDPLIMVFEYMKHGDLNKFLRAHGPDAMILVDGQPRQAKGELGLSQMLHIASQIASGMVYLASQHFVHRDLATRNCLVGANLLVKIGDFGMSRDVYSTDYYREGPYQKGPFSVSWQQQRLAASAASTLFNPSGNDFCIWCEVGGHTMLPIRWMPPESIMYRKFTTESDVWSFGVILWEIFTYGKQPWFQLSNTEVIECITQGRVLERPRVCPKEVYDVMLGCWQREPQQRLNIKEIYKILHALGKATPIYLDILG

Consider NT3 (ligand), for which the trkC tyrosine phosphorylation, half maximum effective concentration (EC50) in assay [1] came out at 1.09 nM. Further, the survival of embryonic rat trigeminal neuron cultures, EC50 in assay [2] was 0.00073 nM.

B1: humanized anti-trkC agonist antibody A5 (antibody, V domains shown)
VH: QVQLVQSGAEVKKPGASVKVSCKASGYTFTSYRIHWVRQAPGQGLEWMGEIYPSNARTNYNEKFKSRVTMTRDTSTSTVYMELSSLRSEDTAVYYCARKYYYGNTRRSWYFDVWGQGTTVTVS
VL: DIQMTQSPSSLSASVGDRVTITCRASESIDNYGISFLAWYQQKPGKAPKLLIYAASNRGSGVPSRFSGSGSGTDFTFTISSLQPEDIATYYCQQSKTVPRTFGQGTKLEIKR
Take B1: the Kd (commonly a measure of binding affinity in units of concentration) in assay [3] was around 0.28 nM.
